In this assay the target is commercial orange peel PME (pectin methylesterase, Sigma p5400) (orange (peel)).

“recombinant MePMEI1 protein (pectin methylesterase inhibitor 1 of Manihot esculenta) (natural protein)”: the relative activity of MePMEI1 (loss of PME activity with MePMEI1 against the initial PME activity) at pH 4.5, 5.5, 6.5, 7.5 and 8.5; highest at pH 5.5, falling with rising pH was found to be 31%.

The record behind these values is article PMC9523724.
